According to the RNAGym collection of RNA variant scans (doi:10.7554/elife.80360):

B1: HDV Ribozyme (parent)
chain: GGCCGGCAUGGUCCCAGCCUCCUCGCUGGCGCCGGCUGGGCAACAUUCCGAGGGGACCGUCCCCUCGGUAAUGGCGAAUGGGACCCA

Variants of: B1
Test: self-cleavage, relative activity (ratio to wild type); higher = more cleavage; co-transcriptional

| Variant | self-cleavage |
| --- | --- |
| GGCCGGCAUGGUCCCAGCCUGCUCGCUGGCGCCGGCUGGGCAACAUUUCGAGGGGACCGUCCCCUCGGUAAUGGCGAAUGGGACCCA | 0.0707 |
| GGCCGGCAUGGUCCCAGCCUGCUCGCUGGCGCCGGCUGGGCAACAUUCCGAGGGGACCGUCCCCUCGGUAACGGCGAAUGGGACCCA | 0.0426 |
| GGCCGGCAUGGUCCCAGCCUUCUCGCUGGCGCCGGCUGGGCAACAUUCCGAGGGGACGGUCCCCUCGGUAAUGGCGAAUGGGACCCA | 0.227 |
| GGCCGGCAUGGUCCCAGCCUUCUCGCUGGCGCCGGCUGGGCAACAUUCCGAGGGGACCGUCGCCUCGGUAAUGGCGAAUGGGACCCA | 0.244 |
| GGCCGGCAUGGUCCCAGCCUGCUCGCUGGCGCCGGCAGGGCAACAUUCCGAGGGGACCGUCCCCUCGGUAAUGGCGAAUGGGACCCA | 0.119 |
| GGCCGGCAUGGUCCCAGCCUGCUCGCUGGCGCCGGCCGGGCAACAUUCCGAGGGGACCGUCCCCUCGGUAAUGGCGAAUGGGACCCA | 0.0615 |
| GGCCGGCAUGGUCCCAGCCUGCUCACUGGCGCCGGCUGGGCAACAUUCCGAGGGGACCGUCCCCUCGGUAAUGGCGAAUGGGACCCA | 0.185 |
| GGCCGGCAUGGUCCCAGCCUGCUCGCUGGCGCCCGCUGGGCAACAUUCCGAGGGGACCGUCCCCUCGGUAAUGGCGAAUGGGACCCA | 0.111 |
| GGCCGGCAUGGUCCCAGCCUUCUCGCUGGCGCCGGCUGGGCGACAUUCCGAGGGGACCGUCCCCUCGGUAAUGGCGAAUGGGACCCA | 0.0652 |
| GGCCGGCAUGGUCCCAGCCUUCUCGCUGGCGCCGGCUGGGCCACAUUCCGAGGGGACCGUCCCCUCGGUAAUGGCGAAUGGGACCCA | 0.203 |
| GGCCGGCAUGGUCCCAGCCUUCUCGCUGGCGUCGGCUGGGCAACAUUCCGAGGGGACCGUCCCCUCGGUAAUGGCGAAUGGGACCCA | 0.205 |
| GGCCGGCAUGGUCCCAGCCUGCUCGCUGGCGCCGGCUGGGCAACAUUCCGAGGGGAGCGUCCCCUCGGUAAUGGCGAAUGGGACCCA | 0.0437 |
| GGCCGGCAUGGUCCCAGCCUGCUCGCUGGCGCCGGCUGGGCAACAUUCCGAGGGGACCGUCCCCUCGGGAAUGGCGAAUGGGACCCA | 0 |
| GGCCGGCAUGGUCCCAGCCUGCUCGCUGGCGCCGGCUGGGGAACAUUCCGAGGGGACCGUCCCCUCGGUAAUGGCGAAUGGGACCCA | 0.095 |
| GGCCGGCAUGGUCCCAGCCUGCUCGCUGGCGCCGGCUGCGCAACAUUCCGAGGGGACCGUCCCCUCGGUAAUGGCGAAUGGGACCCA | 0.554 |
| GGCCGGCAUGGUCCCAGCCUGCUCGCUGGCGCCGGCUGGGCAACAUUCCGAGGGCACCGUCCCCUCGGUAAUGGCGAAUGGGACCCA | 0.135 |
| GGCCGGCAUGGUCCCAGCCUGCUCGCUGGCGCCGGCUGGGCAACAUUCCGAGGGAACCGUCCCCUCGGUAAUGGCGAAUGGGACCCA | 0.0941 |
| GGCCGGCAUGGUCCCAGCCUUCUCGCUGGCGCAGGCUGGGCAACAUUCCGAGGGGACCGUCCCCUCGGUAAUGGCGAAUGGGACCCA | 0 |
| GGCCGGCAUGGUCCCAGCCUUCUCGCUGGCGCGGGCUGGGCAACAUUCCGAGGGGACCGUCCCCUCGGUAAUGGCGAAUGGGACCCA | 0.104 |
| GGCCGGCAUGGUCCCAGCCUUCUCGCUGGCGCUGGCUGGGCAACAUUCCGAGGGGACCGUCCCCUCGGUAAUGGCGAAUGGGACCCA | 0.147 |
| GGCCGGCAUGGUCCCAGCCUGCUCGCUGGCGCCGGCUGGGCAACAUUCCGAGGGGACCGUCCCCUCGGUAAUGGCCAAUGGGACCCA | 0 |
| GGCCGGCAUGGUCCCAGCCUGCUCGCUGGCGCCGGCUGGGCAACAUUCCGAGGGGACCGUCCCCUCGUUAAUGGCGAAUGGGACCCA | 0 |

| Variant | self-cleavage |
| --- | --- |
| GGCCGGCAUGGUCCCAGCCUGCUCGCUGGCGCCGGCUGGGCAACAUUCCGAGGGGACCGUCCCCUCGGUAAUAGCGAAUGGGACCCA | 0.111 |
| GGCCGGCAUGGUCCCAGCCUGCUCGCUGGCGCCGGCUGGGCAACAUUCCGAGGGGACCGUCCCCGCGGUAAUGGCGAAUGGGACCCA | 0 |
| GGCCGGCAUGGUCCCAGCCUUUUCGCUGGCGCCGGCUGGGCAACAUUCCGAGGGGACCGUCCCCUCGGUAAUGGCGAAUGGGACCCA | 0.0702 |
| GGCCGGCAUGGUCCCAGCCUGCUCGCUGGCGCCGGCUGGGCAACAUUCCGAGGCGACCGUCCCCUCGGUAAUGGCGAAUGGGACCCA | 0.0264 |
| GGCCGGCAUGGUCCCAGCCUUCUCGCUGGCGCCGGCUGGGCAACAUUCGGAGGGGACCGUCCCCUCGGUAAUGGCGAAUGGGACCCA | 0.102 |
| GGCCGGCAUGGUCCCAGCCUUCUCGCUGGCGCCGGCUGGGCAACAUUCUGAGGGGACCGUCCCCUCGGUAAUGGCGAAUGGGACCCA | 0.245 |
| GGCCGGCAUGGUCCCAGCCUGCUCGCUGGCGCCGGCUGGGCAACAUUCCGAGCGGACCGUCCCCUCGGUAAUGGCGAAUGGGACCCA | 0.0978 |
| GGCCGGCAUGGUCCCAGCCUUCUCGCUGGCGCCGGCUGGGCAACAUUCCGAGGGGACCGUACCCUCGGUAAUGGCGAAUGGGACCCA | 0.176 |
| GGCCGGCAUGGUCCCAGCCUUCUCGCUGGCGCCGGCUGGGCAACAUUCCGAGGGGACCGUCCCGUCGGUAAUGGCGAAUGGGACCCA | 0.364 |
| GGCCGGCAUGGUCCCAGCCUUCUCGCUGGCGCCGGCUGGGCAACUUUCCGAGGGGACCGUCCCCUCGGUAAUGGCGAAUGGGACCCA | 0.283 |
| GGCCGGCAUGGUCCCAGCCUGCUCGCUGGCGCCGGCUGGGCAACAUUCCGAGGGGACCGUCGCCUCGGUAAUGGCGAAUGGGACCCA | 0.0755 |
| GGCCGGCAUGGUCCCAGCCUGCUCGCUGGCGCCGGCUGGGCAACAUUCCGAGGGGACCGUCCACUCGGUAAUGGCGAAUGGGACCCA | 0.106 |
| GGCCGGCAUGGUCCCAGCCUGCUCGCUGGCGCCGGCUGGGCAACAUUCCGAGGGGACCGUCCGCUCGGUAAUGGCGAAUGGGACCCA | 0.0378 |
| GGCCGGCAUGGUCCCAGCCUGCUCGCUGGCGCCGGCUGGGCAACAUUCCGAGGGGACCGUCCUCUCGGUAAUGGCGAAUGGGACCCA | 0.0339 |
| GGCCGGCAUGGUCCCAGCCUUCUCGCUGGCGCCGGGUGGGCAACAUUCCGAGGGGACCGUCCCCUCGGUAAUGGCGAAUGGGACCCA | 0 |
| GGCCGGCAUGGUCCCAGCCUGCUCGCUGGCGCCGGCUGGGCAACAUUCCGAGGGGACCGUCCCCUCGGUAAUGUCGAAUGGGACCCA | 0.0554 |
| GGCCGGCAUGGUCCCAGCCUGCUCGCUGGCGCCGGCUGGGCAACAUUCCGAGGGGACCGUCCCCUCGGUAAUGACGAAUGGGACCCA | 0.0511 |
| GGCCGGCAUGGUCCCAGCCUGCUCGCUGGCGCCGGCUGGGCAACAUUCCGAGGGGACCGUCCCCUCGGUAAUGGUGAAUGGGACCCA | 0.0378 |
| GGCCGGCAUGGUCCCAGCCUGCUCGCUGGCGCCGGCUGGGCAACAUUCCGAGGGGACCGUCCCCUCGGUAAUGGAGAAUGGGACCCA | 0.0415 |
| GGCCGGCAUGGUCCCAGCCUUCUCGCUGGCGCCGGCUGGGCAACAUUCCGAGGGGACCGUCCCCUCGGUAAUGGCGUAUGGGACCCA | 0.13 |
| GGCCGGCAUGGUCCCAGCCUGCUCGCUGGCGCCGGCUGGGCAACAUUCCGAGGGGACCGUCCCCUUGGUAAUGGCGAAUGGGACCCA | 0.0475 |
| GGCCGGCAUGGUCCCAGCCUUCUCGCUGGCGCCGGCUGGGCACCAUUCCGAGGGGACCGUCCCCUCGGUAAUGGCGAAUGGGACCCA | 0.0545 |

| Variant | self-cleavage |
| --- | --- |
| GGCCGGCAUGGUCCCAGCCUUCUCGCUGGCGCCGGCUGGGCAACAUUCCGAGGGGACCGUCCGCUCGGUAAUGGCGAAUGGGACCCA | 0.119 |
| GGCCGGCAUGGUCCCAGCCUGCUCGCUGGCGCCGGCUGGGCAACAUUCCGAGGGGACCGUCCCUUCGGUAAUGGCGAAUGGGACCCA | 0.0287 |
| GGCCGGCAUGGUCCCAGCCUGCUCGCUGGCGCCGGCUGGGCAACAUUCCGAGGGGACCGUCCCAUCGGUAAUGGCGAAUGGGACCCA | 0.131 |
| GGCCGGCAUGGUCCCAGCCUGCUCGCUGGCGCCGGCUGGGCAACAUUCCGAGGGGACCGUCCCCUCGGUAAUGGCGAAUCGGACCCA | 0.177 |
| GGCCGGCAUGGUCCCAGCCUGCUCGCUGGCGCCGGCUGGGCAACAUUCCGAGGGGACCGUCCCCUCUGUAAUGGCGAAUGGGACCCA | 0.0723 |
| GGCCGGCAUGGUCCCAGCCUUCUCGGUGGCGCCGGCUGGGCAACAUUCCGAGGGGACCGUCCCCUCGGUAAUGGCGAAUGGGACCCA | 0.406 |
| GGCCGGCAUGGUCCCAGCCUUCUCGCUGGCGCCGGCUGGGCAACAUUCCGAGGGGACCGUCCCCUCGGUAAUGGCGAAUGGGACUCA | 0.511 |
| GGCCGGCAUGGUCCCAGCCUGCUCGCUGGCGCCGGCUGGGCAACAUUCCGAGGGGACCGUCCCCUCGGUAAUGGCGAAUGGGACUCA | 0 |
| GGCCGGCAUGGUCCCAGCCUGCUCGCUGUCGCCGGCUGGGCAACAUUCCGAGGGGACCGUCCCCUCGGUAAUGGCGAAUGGGACCCA | 0.0733 |
| GGCCGGCAUGGUCCCAGCCUGCUCGCUUGCGCCGGCUGGGCAACAUUCCGAGGGGACCGUCCCCUCGGUAAUGGCGAAUGGGACCCA | 0.0287 |
| GGCCGGCAUGGUCCCAGCCUGCUCGCUGGCGCCGGCUGGGCAACACUCCGAGGGGACCGUCCCCUCGGUAAUGGCGAAUGGGACCCA | 0.104 |
| GGCCGGCAUGGUCCCAGCCUGCUCGCUGGCGCCGGAUGGGCAACAUUCCGAGGGGACCGUCCCCUCGGUAAUGGCGAAUGGGACCCA | 0.0405 |
| GGCCGGCAUGGUCCCAGCCUGCUCGCUGGCGCCGGUUGGGCAACAUUCCGAGGGGACCGUCCCCUCGGUAAUGGCGAAUGGGACCCA | 0.0326 |
| GGCCGGCAUGGUCCCAGCCUGCUCGCUGGCGCCGGGUGGGCAACAUUCCGAGGGGACCGUCCCCUCGGUAAUGGCGAAUGGGACCCA | 0 |
| GGCCGGCAUGGUCCCAGCCUGCUCGCUGGCGCCGACUGGGCAACAUUCCGAGGGGACCGUCCCCUCGGUAAUGGCGAAUGGGACCCA | 0.0817 |
| GGCCGGCAUGGUCCCAGCCUGCUCGCUGGCGCCGGCUGGGCAACAUUCCGAGGGGACCGCCCCCUCGGUAAUGGCGAAUGGGACCCA | 0.0489 |
| GGCCGGCAUGGUCCCAGCCUGCUCGCAGGCGCCGGCUGGGCAACAUUCCGAGGGGACCGUCCCCUCGGUAAUGGCGAAUGGGACCCA | 0 |
| GGCCGGCAUGGUCCCAGCCUGCUCGCUGGCGCCGGCUCGGCAACAUUCCGAGGGGACCGUCCCCUCGGUAAUGGCGAAUGGGACCCA | 0 |
| GGCCGGCAUGGUCCCAGCCUUCUCGCUGGCGCCGGCUGGGCAACAUUCCGAGGGGACCGUCCCCUCGGUAGUGGCGAAUGGGACCCA | 0.243 |
| GGCCGGCAUGGUCCCAGCCUGCUCGCUGGCGCCGGCUGGGCAACAUUCCGAGGGGACCCUCCCCUCGGUAAUGGCGAAUGGGACCCA | 0.106 |
